US20140179594A1, “STREPTOCOCCUS BACTERIOPHAGE LYSINS FOR TREATMENT OF GRAM POSITIVE BACTERIA IN COMPANION ANIMALS AND LIVESTOCK” (priority 2011, published 2014)

How the values were obtained:
Assay type in all cases: cell-based
[1] = tested on: E. faecium EFSK2; assay: ΔPlySs1 OD600 lysis, 1 hr
[2] = tested on: L. monocytogenes HER1084; assay: ΔPlySs1 OD600 lysis, 1 hr
[3] = tested on: S. salivarius 9222; assay: ΔPlySs1 OD600 lysis, 1 hr
[4] = tested on: S. sanguinis 10556; assay: ΔPlySs1 OD600 lysis, 1 hr
[5] = tested on: S. suis strain (7711); assay: PlySs1 optimal biochemical conditions, turbidity reduction (OD600); details: for pH of maximal lysis: bis-tris-propane (BTP) buffer
Procedure: FIGS. 11A and 11B depicts ΔPlySs1 pH dependence. (A) Cells of host strain 7711 were suspended in phosphate citrate buffer (40/20 mM) at a range of pH-values from 4.6 to 8.0. ΔPlySs1 was added (110 μg/ml) and OD600 was measured over 60 min (horizontal axis) at 37° C. The vertical axis represents the treated/untreated OD600-ratio at each timepoint. For each pH-value, the curve depicts the running average of 3 independent experiments. Overall, activity was maximal at the upper end of the buffering range. (B) Here, bis-tris-propane (40 mM) was employed as the buffering agent with a pH-range from 7.0 to 9.7; ΔPlySs1 was again added to 110 μg/ml. Each curve depicts the running average of 3 experiments.
FIG. 12 depicts ΔPLySS1 NaCl dependence. S. suis 7711 cells were suspended in phosphate-citrate buffer pH=7.8 (40/20 mM). NaCl was added to the above concentrations, followed by ΔPlySs1 at 110 μg/ml. Optical density at 600 nm was observed over 60 min at 37° C. In this figure, the vertical axis represents the treated/untreated OD600-ratio for each NaCl concentration, averaged over 3 independent experiments.
FIGS. 13A and 13B provides assessment of ΔPlySs1 DTT and EDTA susceptibility. (A) ΔPlySs1 was pre-incubated for 1 hr with 5 mM DTT (a large molar excess) prior to addition to 7711 cells; activity was unchanged. (B) Here, various concentrations of EDTA were included in the buffered suspension of cells prior to addition of ΔPlySs1 (110 μg/ml lysin). For both images, the vertical axis represents the treated/untreated OD600-ratio for each condition, averaged over 3 independent experiments.
(A) A ΔPlySs1 stock solution was held at each of the above temperature for 30 minutes, followed by addition to 7711 cells (270 μg/ml final enzyme concentration, final temperature=37° C., ideal buffering conditions). The curves in this image represent running averages of 3 individual experiments. In each case, complete loss of activity was observed between the 45° C. and 50° C. samples. The 3 hottest samples show a slightly higher OD600 reading than the untreated control due to flocculation of ΔPlySs1 upon denaturation. (B) The above experiment was repeated, but with 6 hours of heat-treatment prior to the assay. […] The 40° C. sample maintained essentially native activity.
The optimal biochemical conditions for PlySs1 were determined against live cells of the encoding S. suis strain (7711). For these experiments, activity was gauged through the degree of turbidity reduction (OD600) of an aqueous bacterial suspension following the addition of lysin. The pH-dependence of the enzyme was first addressed using two buffer sets with adjacent pH ranges, citrate/phosphate: 4.6-8.0; and bis-tris-propane (BTP): 7.0-9.7. An extended spectrum of lysis was observed, from 5.4-9.4 (FIG. 11A). In BTP, lysis was maximal from 8.2-9.0; at commensurate pH-values, however, the magnitude of the OD-drop was slightly more pronounced in citrate/phosphate (FIG. 11B).
At constant enzyme concentrations, bacteriolysis varied little from 0-1000 mM NaCl, with only small numeric increases under the most hypotonic conditions (FIG. 12). […] The thermal stability of PlySs1 was examined by incubating the enzyme at various elevated temperatures prior to use (the OD-drop experiment itself was always conducted at 37° C.). When held at 35° C.-60° C. for 30 min, lysin activity was virtually unaffected until 50° C., at which point it was completely abolished (FIG. 14A). […] The latter corresponds to typical porcine body temperature.

[6] = tested on: S. agalactiae type II; assay: ΔPlySs1 OD600 lysis, 1 hr
[7] = tested on: Group E streptococci K131; assay: ΔPlySs1 OD600 lysis, 1 hr

B1: ΔPlySs1: truncated PlySs1 lysin with N-terminal enzymatic and central binding domains, N-terminal 254 amino acids, SEQ ID NO:2 (protein, listed as Streptococcus suis)
chain: MTINLETSIRWMSDRVGKVSYSMDYRNGPNSYDCSSAVYYALMAGGAISAGWAVNTEYMHDWLIRNGYVLVAENKPFNAQRHDVCILGKRGYSSGAGGHVVIFVDNVNVIHCNYARNGISIDNYNQVHRGMYYYLYRPANQPSISNKSLDQLVKETLAGVHGNGDTRKASLGSQYEAVMAVINGKASASEKSDEELAREVLAGKHGAGEDRKRSLGPRYEPVQAKVNELLKAKEKPSETAKNEPQTVQFKEDGDL
**Q.** What does the source list for B1?
**A.** 1-hour treated/untreated OD600-ratio ([1]; 6.5 μg/ml): 0.85; 1-hour treated/untreated OD600-ratio ([1]; 13 μg/ml): 0.67; 1-hour treated/untreated OD600-ratio ([1]; 30 μg/ml): 0.52; 1-hour treated/untreated OD600-ratio ([1]; 65 μg/ml): 0.32; 1-hour treated/untreated OD600-ratio ([1]; 130 μg/ml): 0.13; 1-hour treated/untreated OD600-ratio ([2]; 6.5 μg/ml): 0.63; 1-hour treated/untreated OD600-ratio ([2]; 13 μg/ml): 0.52; 1-hour treated/untreated OD600-ratio ([2]; 30 μg/ml): 0.26; 1-hour treated/untreated OD600-ratio ([2]; 65 μg/ml): 0.14; 1-hour treated/untreated OD600-ratio ([2]; 130 μg/ml): 0.04; 1-hour treated/untreated OD600-ratio ([3]; 6.5 μg/ml): 0.80; 1-hour treated/untreated OD600-ratio ([3]; 13 μg/ml): 0.76; 1-hour treated/untreated OD600-ratio ([3]; 30 μg/ml): 0.56; 1-hour treated/untreated OD600-ratio ([3]; 65 μg/ml): 0.53; 1-hour treated/untreated OD600-ratio ([3]; 130 μg/ml): 0.37; 1-hour treated/untreated OD600-ratio ([4]; 6.5 μg/ml): 0.48; 1-hour treated/untreated OD600-ratio ([4]; 13 μg/ml): 0.44; 1-hour treated/untreated OD600-ratio ([4]; 30 μg/ml): 0.28; 1-hour treated/untreated OD600-ratio ([4]; 65 μg/ml): 0.21; 1-hour treated/untreated OD600-ratio ([4]; 130 μg/ml): 0.11; effect of salt concentration on bacteriolysis ([5]; 0-1000 mM NaCl, constant enzyme concentration): varied little; thermal stability, activity after heat treatment ([5]; 6-hr incubation at 40° C.): unaffected; thermal stability, activity after heat treatment ([5]; 6-hr incubation at 45° C.): partial decrease in activity; pH of maximal lysis ([5]; S. suis 7711): 9.0; pH of maximal lysis ([5]; S. suis 7711, listed as PlySs1): 8.2-9.0; pH spectrum of lysis ([5]; S. suis 7711, citrate/phosphate 4.6-8.0 and bis-tris-propane 7.0-9.7): 5.4-9.4; effect of DTT on activity ([5]; exposure to an excess of DTT (5 mM, 1 hr pre-incubation)): did not negatively impact activity; effect of EDTA on activity ([5]; exposure to an excess of EDTA): did not negatively impact activity; temperature at which activity is completely abolished ([5]; held at 35° C.-60° C. for 30 min before assay at 37° C.): 50 °C; 1-hour treated/untreated OD600-ratio ([6]; 6.5 μg/ml): 0.61; 1-hour treated/untreated OD600-ratio ([6]; 13 μg/ml): 0.21; 1-hour treated/untreated OD600-ratio ([6]; 30 μg/ml): 0.11; 1-hour treated/untreated OD600-ratio ([6]; 65 μg/ml): 0.08; 1-hour treated/untreated OD600-ratio ([6]; 130 μg/ml): 0.04; 1-hour treated/untreated OD600-ratio ([7]; 6.5 μg/ml): 0.69; 1-hour treated/untreated OD600-ratio ([7]; 13 μg/ml): 0.50; 1-hour treated/untreated OD600-ratio ([7]; 30 μg/ml): 0.33; 1-hour treated/untreated OD600-ratio ([7]; 65 μg/ml): 0.22; 1-hour treated/untreated OD600-ratio ([7]; 130 μg/ml): 0.15
